In patent US8415393B2, “Anti-bacterial drug targeting of genome maintenance interfaces” (Wisconsin Alumni Research Foundation, priority 2007, dated 2013) one finds Kd data, which are given here for 1 molecule.

Where no end group is shown, it is not given here. fluorescein = fluorescein moiety attached to the N-terminus of the peptide (N-terminal fluorescein label)

What all share (test): fluorescence anisotropy equilibrium binding (Kd,app), ExoI variant titrated into fluorescein-labeled peptide
For one assay, the target named is T1, ExoI Arg338Ala variant (Escherichia coli, UniProt P04995 1-475).
T1 construct: basic ridge residue; also called R338A; Arg338 variant
T1 sequence: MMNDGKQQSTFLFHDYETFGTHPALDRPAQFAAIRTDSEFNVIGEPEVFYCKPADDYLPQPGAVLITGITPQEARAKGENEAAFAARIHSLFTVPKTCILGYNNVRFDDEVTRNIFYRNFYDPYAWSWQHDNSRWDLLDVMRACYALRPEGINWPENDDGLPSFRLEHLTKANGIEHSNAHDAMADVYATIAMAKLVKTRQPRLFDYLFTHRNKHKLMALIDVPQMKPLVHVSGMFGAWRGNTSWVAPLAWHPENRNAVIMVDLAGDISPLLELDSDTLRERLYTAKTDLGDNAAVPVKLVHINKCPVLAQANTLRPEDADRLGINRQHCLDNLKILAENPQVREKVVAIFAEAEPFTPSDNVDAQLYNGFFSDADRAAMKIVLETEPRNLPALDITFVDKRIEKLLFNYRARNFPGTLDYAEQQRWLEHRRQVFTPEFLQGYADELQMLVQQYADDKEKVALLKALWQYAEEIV

For a further assay, the target named is T2, ExoI Glu150Ala variant (Escherichia coli, UniProt P04995 1-475).
T2 construct: also called E150A; Glu150 variant
T2 sequence: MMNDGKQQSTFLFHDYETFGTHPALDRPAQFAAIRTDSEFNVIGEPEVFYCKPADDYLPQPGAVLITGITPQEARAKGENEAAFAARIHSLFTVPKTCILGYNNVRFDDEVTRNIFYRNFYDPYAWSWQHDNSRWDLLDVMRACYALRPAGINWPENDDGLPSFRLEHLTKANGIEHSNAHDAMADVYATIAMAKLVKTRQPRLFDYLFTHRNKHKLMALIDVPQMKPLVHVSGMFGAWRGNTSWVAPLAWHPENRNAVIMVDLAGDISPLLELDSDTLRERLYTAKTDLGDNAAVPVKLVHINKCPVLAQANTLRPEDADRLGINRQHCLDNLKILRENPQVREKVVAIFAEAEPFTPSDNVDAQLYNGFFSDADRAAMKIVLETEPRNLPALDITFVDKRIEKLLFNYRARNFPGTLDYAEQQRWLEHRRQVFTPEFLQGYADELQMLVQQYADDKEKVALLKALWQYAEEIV

The next assay addresses T3, ExoI Arg148Ala variant (Escherichia coli, UniProt P04995 1-475).
T3 construct: also called R148A; Arg148 variant
T3 sequence: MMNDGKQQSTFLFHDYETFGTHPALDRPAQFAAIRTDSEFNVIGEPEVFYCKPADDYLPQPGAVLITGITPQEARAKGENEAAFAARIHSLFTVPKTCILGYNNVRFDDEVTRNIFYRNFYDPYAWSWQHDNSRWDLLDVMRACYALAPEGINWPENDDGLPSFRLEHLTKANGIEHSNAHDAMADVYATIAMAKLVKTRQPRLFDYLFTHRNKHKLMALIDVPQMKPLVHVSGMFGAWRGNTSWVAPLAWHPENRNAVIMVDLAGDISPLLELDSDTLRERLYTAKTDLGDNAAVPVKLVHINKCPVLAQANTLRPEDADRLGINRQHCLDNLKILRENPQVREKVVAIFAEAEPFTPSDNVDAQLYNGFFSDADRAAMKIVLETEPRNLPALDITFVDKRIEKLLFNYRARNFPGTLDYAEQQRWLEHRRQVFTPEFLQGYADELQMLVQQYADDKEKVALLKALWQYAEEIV

Another assay deals with T4, ExoI Gln452Ala variant (Escherichia coli, UniProt P04995 1-475).
T4 construct: helical domain residue; also called Q452A; Gln452 variant
T4 sequence: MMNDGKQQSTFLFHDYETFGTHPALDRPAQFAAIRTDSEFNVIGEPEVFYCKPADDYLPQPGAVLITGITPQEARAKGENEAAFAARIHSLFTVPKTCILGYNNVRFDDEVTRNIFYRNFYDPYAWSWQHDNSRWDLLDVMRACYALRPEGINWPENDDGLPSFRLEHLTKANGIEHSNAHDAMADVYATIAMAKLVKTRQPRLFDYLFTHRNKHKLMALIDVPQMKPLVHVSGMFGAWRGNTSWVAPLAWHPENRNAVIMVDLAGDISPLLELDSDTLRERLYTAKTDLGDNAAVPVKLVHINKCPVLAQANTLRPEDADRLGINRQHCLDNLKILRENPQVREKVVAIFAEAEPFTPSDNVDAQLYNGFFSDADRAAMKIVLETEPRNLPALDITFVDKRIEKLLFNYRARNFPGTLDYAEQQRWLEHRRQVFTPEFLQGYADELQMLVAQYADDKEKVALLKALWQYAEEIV

The target of a further assay is T5, ExoI Glu318Ala variant (Escherichia coli, UniProt P04995 1-475).
T5 construct: also called E318A; Glu318 variant
T5 sequence: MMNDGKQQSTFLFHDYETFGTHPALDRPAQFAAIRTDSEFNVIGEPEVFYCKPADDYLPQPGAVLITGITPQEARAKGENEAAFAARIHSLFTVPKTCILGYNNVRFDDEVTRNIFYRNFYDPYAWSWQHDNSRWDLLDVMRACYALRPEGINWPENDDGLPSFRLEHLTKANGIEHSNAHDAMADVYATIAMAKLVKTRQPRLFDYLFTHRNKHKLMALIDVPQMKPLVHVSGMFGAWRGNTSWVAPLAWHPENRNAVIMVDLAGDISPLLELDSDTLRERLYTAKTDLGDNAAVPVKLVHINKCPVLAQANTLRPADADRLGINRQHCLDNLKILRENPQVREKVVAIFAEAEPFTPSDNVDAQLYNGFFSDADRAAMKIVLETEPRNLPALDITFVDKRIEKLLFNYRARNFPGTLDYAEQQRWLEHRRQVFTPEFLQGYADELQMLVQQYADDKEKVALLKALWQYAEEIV

B1: fluorescein-labeled SSB C-terminal peptide (fluorescein-WMDFDDDIPF) (peptide)
peptide: fluorescein-WMDFDDDIPF
notes: also called F-SSB-Ct; F-WT
Regarding B1, the Kd with ExoI Arg338Ala variant is 398 nM; in the assay with ExoI Glu150Ala variant, 72 nM; with ExoI Arg148Ala variant, above 1000 nM; in the assay with ExoI Gln452Ala variant it was 212 nM; with ExoI Glu318Ala variant, 80 nM.
